Data on 4 substances can be found in patent publication US20060154859A1.

Test [1] addresses long form of human leptin receptor (human) (UniProt P48357). As to the kind of experiment: cell-based or functional assay.
Test [2] concerns the target recombinant chicken leptin binding domain (chLBD) (chicken). The experiment in a line: SPR (Biacore 3000), leptin amine-coupled to CM5 chip, soluble chLBD as analyte, 25 C, 1:1 Langmuir fit, mean of 2 experiments. A general note: SPR reads the build-up and loss of mass on a sensor chip optically.
The target in test [3] is long form of human leptin receptor (human) (UniProt P48357). The experiment in a line: radioreceptor competition assay against iodinated leptin, homogenate of BAF/3 cells with long form of human leptin receptor, average of two experiments.
Target sequence in this assay (P48357 22-1165 limits assumed, form in doubt): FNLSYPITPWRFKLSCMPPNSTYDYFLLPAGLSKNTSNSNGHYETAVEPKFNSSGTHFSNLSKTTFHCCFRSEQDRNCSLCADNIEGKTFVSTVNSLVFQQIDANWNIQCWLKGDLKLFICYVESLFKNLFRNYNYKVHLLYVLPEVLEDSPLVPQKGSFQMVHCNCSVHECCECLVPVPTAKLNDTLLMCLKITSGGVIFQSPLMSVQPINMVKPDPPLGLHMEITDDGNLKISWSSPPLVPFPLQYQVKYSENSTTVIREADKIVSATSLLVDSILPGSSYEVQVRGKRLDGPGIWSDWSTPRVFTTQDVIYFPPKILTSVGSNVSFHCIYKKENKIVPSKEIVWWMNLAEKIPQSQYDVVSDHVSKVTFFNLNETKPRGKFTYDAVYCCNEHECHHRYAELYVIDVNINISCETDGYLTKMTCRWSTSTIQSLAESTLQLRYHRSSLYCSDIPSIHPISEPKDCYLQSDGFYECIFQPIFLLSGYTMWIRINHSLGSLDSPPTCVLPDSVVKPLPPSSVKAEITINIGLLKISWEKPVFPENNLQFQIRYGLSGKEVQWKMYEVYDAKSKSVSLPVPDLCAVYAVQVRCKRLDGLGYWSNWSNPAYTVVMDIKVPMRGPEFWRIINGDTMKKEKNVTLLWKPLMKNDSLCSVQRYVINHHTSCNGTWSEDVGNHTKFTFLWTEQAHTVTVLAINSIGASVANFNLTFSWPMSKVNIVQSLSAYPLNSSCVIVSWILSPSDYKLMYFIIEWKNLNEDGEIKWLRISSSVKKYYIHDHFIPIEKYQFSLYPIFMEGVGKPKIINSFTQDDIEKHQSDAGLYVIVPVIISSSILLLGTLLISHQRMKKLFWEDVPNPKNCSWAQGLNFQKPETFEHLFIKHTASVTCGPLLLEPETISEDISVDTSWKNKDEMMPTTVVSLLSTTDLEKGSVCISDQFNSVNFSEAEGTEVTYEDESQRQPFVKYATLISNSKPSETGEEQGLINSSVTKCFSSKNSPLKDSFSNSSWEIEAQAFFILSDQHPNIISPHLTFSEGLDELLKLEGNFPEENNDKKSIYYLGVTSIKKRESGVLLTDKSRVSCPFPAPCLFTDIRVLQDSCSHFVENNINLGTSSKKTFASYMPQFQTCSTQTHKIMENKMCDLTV
The target is the same in test [4]. The experiment in a line: radioreceptor assay, homogenate from 1.75x10^6 BAF/3 cells with human leptin receptor per tube.
Target sequence in this assay (P48357 22-1165 limits assumed, form in doubt): as above
Test [5] has as its target recombinant chicken leptin binding domain (chLBD) (chicken). As to the kind of experiment: affinity for chLBD (method not given; compared with the SPR value of WT human leptin).

The term Kd denotes the concentration at which binding is half-saturated. As a reminder, the koff is a measure of how fast the partners let go of each other. For orientation: kon means a measure of how fast the partners come together. In general, IC50 refers to the point on the concentration scale where inhibition reaches its midpoint. High values mean a need for much substance, low ones inhibition by little substance.

For the substance “wild-type (WT) ovine leptin, recombinant (from UniProt Q28603 1-146) (ligand)”, the EC50 in Baf/3 bioassay (proliferation of BAF/3 cells transfected with the long form of human leptin receptor, MTT) in test [1] came out at 37 pM. In test [2], the equilibrium dissociation constant (Kd) was 22.8 nM, the koff worked out at 0.0037 s⁻¹ and the kon was found to be 162000 M⁻¹ s⁻¹. For the same substance, the half-maximal inhibitory concentration (IC50) in test [3] was determined as 1.47 nM.

“wild-type (WT) human leptin, recombinant (from UniProt P41159 22-167) (ligand)” yielded an EC50 in Baf/3 bioassay (proliferation of BAF/3 cells transfected with the long form of human leptin receptor, MTT) in test [1] of 22 pM. Besides, in test [4], the specific binding fell in the range of 6 to 7%. In test [2], the Kd is 28.8 nM, the koff was found to be 0.0043 s⁻¹ and the kon was found to be 149000 M⁻¹ s⁻¹. Also, the IC50 in test [3] came out at 5.33 nM.

“human leptin L39A/D40A/F41A/I42A/S120A/T121A mutant (from UniProt P41159 22-167) (ligand)” had an IC50 for inhibition in the Baf/3 bioassay in test [1] of 14.3 nM. The Kd in test [5] came out at 26.9 nM.

Regarding “human leptin S120A/T121A mutant (from UniProt P41159 22-167) (ligand)”, in test [1], the IC50 for inhibition in the Baf/3 bioassay is 165 nM and the IC50 for inhibition in the Baf/3 bioassay, fold against L39A/D40A/F41A or L39A/D40A/F41A/I42A was determined as 150 fold. Besides, in test [5], the dissociation constant Kd came to 29.5 nM.
